According to IntAct's records for PubMed 24121231:

Molecular target: not2_yeast CDC36 (UniProt P06100)
Sequence of UniProt P06100 (P06100 whole entry): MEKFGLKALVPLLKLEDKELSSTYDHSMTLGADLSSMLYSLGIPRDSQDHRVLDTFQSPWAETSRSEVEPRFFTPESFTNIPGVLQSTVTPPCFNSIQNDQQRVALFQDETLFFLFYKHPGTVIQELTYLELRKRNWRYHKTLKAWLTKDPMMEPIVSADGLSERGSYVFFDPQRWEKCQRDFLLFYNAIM

| effect of a mutation on the interaction | Substance |
| --- | --- |
| disrupting interaction strength | General negative regulator of transcription subunit 1 (Saccharomyces cerevisiae), P25655 F1751E |
| disrupting interaction strength | General negative regulator of transcription subunit 1 (Saccharomyces cerevisiae), P25655 R1811E;L1814E |
